Laboratory results as given in US20110129488A1, “IMMUNOTHERAPY COMPOSITIONS FOR THE TREATMENT AND PREVENTION OF AMYLOIDOSIS” (MEDIVET PHARMA, S.L., priority 2008, published 2011).
Where no end group is shown, it is not given here.

Experiments:
Abeta 1-40 peptide = Abeta 1-40 peptide (Canis lupus familiaris, UniProt Q28280); assay: Anti-Abeta IgG titration (ELISA) of serum from immunized rabbits; format: in vivo, rabbit
Method: To design a veterinary vaccine composition that generates a high level of high affinity antibodies with cross reactivity to the soluble Abeta 1-40 peptide and the plaques in the CNS of dogs with CDS, the relative immunogeneicity of the synthesized sequences of example 1 were characterized separately. To do that, SEQ ID NO 1 and SEQ ID NO 3 were administered conjugated with KLH and mixed with 1 mg of Alum (Sigma, St Louis, U.S.A.) an adjuvant of general veterinary use. The relative immunogenicity of the two peptide sequences was compared according to standard titration of the immune products generated.
Experiments were performed in adult female New Zealand White rabbits weighing between 1.5-2 kg at the beginning of the study. They were kept on a 12 h light/12 h dark cycle and housed with free access to food and water. All animals were manipulated according to the European legislation (86/609/EEC) for animal handling and experimentation. Procedures were approved by the Ethic Committee of the Universitat de Barcelona, under supervision of the Generalitat de Catalunya; all efforts were made to minimize animal suffering and to use only the number of animals necessary to produce reliable scientific data.
Rabbits were subcutaneously immunized with 100 μg of peptide from either: a) SEQ ID NO 3 conjugated with KLH and 1 mg Alum used as adjuvant (n=2); b) SEQ ID NO 1 conjugated with KLH and 1 mg Alum used as adjuvant (n=2); or c) KLH and 1 mg Alum (no peptide n=2). The immunization protocol consisted of a dose subcutaneously delivered up to six sites near the back of the neck, and repeated at days 11, 21, 31 and 41.
Samples of serum were collected from each rabbit at days 0, 21, 31 and 51. Each time, 5 ml blood samples were collected from the ear marginal vein in plastic tubes with no additive. At day 71 rabbits were anaesthetized and exanguinated. Blood samples were then kept at room temperature (RT) for 30 min, afterwards they were centrifuged for 10 min at 3000 rpm. Supernatants were collected as serum samples, aliquoted and stored at −80° C.
Titration of serum samples to detect the presence of antibodies that had been raised by SEQ ID NO 1 and SEQ ID NO 3 was performed by Enzime-Linked Immunosorbent Assays (ELISA) on 96-well plates developed by the biotin-avidin-peroxidase method. Plate sensitization was made overnight at 4° C. with 2 μg/ml of Abeta 1-40 peptide diluted in 50 mM NaHCO3, pH 9.6. […] After washing, specific binding was detected by incubation with Biotin conjugated anti-Rabbit IgG antibody (Sigma, St. Louis, Mo., U.S.A) diluted 1/20000 in TBS for 1 hour at RT. […] Plates were densitometrically analyzed at 450 nm with a Tecan Sunrise Absorbance Reader apparatus (Tecan Iberica, Madrid, Spain). […]

[1] = target: T1, canine Abeta 1-40 peptide (Canis lupus familiaris, UniProt Q28280); assay: ELISA titration of affinity-purified antibodies from rabbit serum; format: binding, dog
T1 construct: made in house; host or cells: chemical synthesis (Fmoc solid phase), no expression host
Source text: Antibody purification was made by affinity chromatography in columns of 4B Sepharose activated with BrCN (GE healthcare 15gr) according to standard procedures. Synthetic Abeta1-40 peptide (SEQ ID NO 1) was linked to the BrCN and used as antigen for the affinity purification of antibodies. Anti-Abeta28-40 antibodies were purified from rabbit serum samples presenting the highest level of titers, i.e. serum samples collected on day 31 after immunization (example 2). The same was true for serum samples used for purification of anti-Abeta 1-40 antibodies. Purified antibodies were firstly eluted with an acid solution of 100 mM glycine in PBS (pH 2.5) and, then with a basic solution of 100 mM glycine and 4 M urea in PBS (pH 9)
The purified antibodies were quantified by ELISA on 96-well plates developed by the biotin-avidin-peroxidase method. Plate sensitization was made overnight at 4° C. with […] of canine Abeta 1-40 peptide diluted in 50 mM NaHCO3 pH 9.6. The ELISA procedure was then carried out as explained in example 2.

[2] = target: T1, canine Abeta 1-40 peptide; assay: Anti-Abeta IgG titration (ELISA) of serum from immunized dogs; format: in vivo, dog
Method: To validate the immunogenicity of the peptide according to the present invention, dogs were immunized with the synthesized Abeta 28-40 peptide (SEQ ID NO 3) and antibody generation was assessed in serum samples by ELISA. To do that, the peptide fragment was administered conjugated with KLH and mixed with 1 mg Alum (Sigma, St. Louis, Mo., U.S.A.), an adjuvant of general veterinary use. The immunogenicity of the Abeta28-40 peptide was compared versus pre-immune serum according to standard titration of the immune products generated.
Male and female dogs of various breeds, sex and ages certified by their medical records from the veterinary hospital Ars Veterinaria of Barcelona, Spain, were used in this study. In all cases, pet owners formally informed approved the treatment of their dogs. All animals were treated according to European legislation on animal experimentation (86/609/EU), and procedures were approved by the Ethical Committee of the University of Barcelona. All efforts were made to minimize animal suffering and to use no more than the number of animals needed for reliable scientific data.
Dogs were subcutaneously immunized with either: a) 100 μg per animal of SEQ ID NO 3 conjugated with KLH and 1 mg Alum used as adjuvant (n=2) or b) 100 μg per animal of KLH and 1 mg Alum (no peptide n=2). […]

[3] = test system: Aβ 1-40 and Aβ 1-42, diffuse plaque; conditions: aged beagles (8.4-12.4 years) immunized for 2.4 years; several cortical regions; cited from earlier work
aged beagles = aged beagles (8.4-12.4 years) immunized for 2.4 years; cited from earlier work

Chain of Abeta 1-40 peptide (Q28280 7-46 limits assumed): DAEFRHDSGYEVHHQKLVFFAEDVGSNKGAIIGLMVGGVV
T1 sequence (Q28280 7-46): as the sequence (Q28280 7-46 limits assumed) above

Substance | serum dilution that presents half of the maximal binding (B1/2) (Abeta 1-40 peptide; 100 μg peptide s.c. conjugated with KLH + 1 mg Alum, repeated days 11, 21, 31, 41, serum of day 31) | immunogenic response compared with SEQ ID NO 1 (Abeta 1-40 peptide; comparison of B1/2 dilutions of day 31) | specific production of antibodies in serum samples (Abeta 1-40 peptide; peptide-KLH + Alum s.c., from day 21 following the first immunization) | day of highest levels of immunization (Abeta 1-40 peptide; peptide-KLH + Alum s.c., serum days 0, 21, 31, 51) | titers of anti-Abeta antibodies in the basic elution ([1]; basic elution (100 mM glycine, 4 M urea, pH 9), slightly lower than the acid elution) | titers of specific antibodies against canine Abeta1-40 in purified sera ([1]; day 31 serum of immunized rabbits, affinity purified on Abeta1-40 column) | specific production of anti-Abeta antibodies in serum samples ([2]; 100 μg per animal conjugated with KLH + 1 mg Alum s.c., repeated days 31, 61, 75, day 30 after first immunization) | day of highest values of optic density ([2]; peptide-KLH + Alum s.c., serum days 0, 30, 60, 74, 90) | extent of diffuse plaque accumulation [3] | levels of soluble and insoluble Aβ 1-40 and Aβ 1-42 [3] | measures of learning, spatial attention, or spatial memory (aged beagles)
KGAIIGLMVGGVV (also: KLH conjugate) [SEQ ID NO 3, canine Abeta protein amino acids 28 to 40; tested conjugated with KLH plus Alum] | 1/611 | higher immunogenic response | detected | 31 days | high titers | High titers | detected | 74 days | – | – | –
fibrillar Aβ (1-42): fibrillar Aβ (1-42) formulated with aluminum salt (Alum), Head et al. 2008 | – | – | – | – | – | – | – | – | significantly decreased | significantly decreased | no improvement
